Experimental data reported in the RNAGym collection of RNA variant scans (doi:10.1021/acssynbio.7b00057).

B1: Pistol ribozyme (parent)
chain: GGGUCGUUGUUCCAUAAUCGCGUGGAUAUGGCACGCAAGUUUCUACCGGGCACCGUAAAUGUCCGACUGGAGCCGUUCGGGCGGCUAUAAACAGACCUCAGGCCCGAAGCGUGGCGGCACCUGCCGCCGGUGGUAAAAAAGAUCGGAAGAGCACACGUCU

Variants of: B1
Test: aptazyme ON/OFF ratio, guanine; higher = stronger switching; co-transcriptional cleavage with and without guanine

Variant	aptazyme ON/OFF ratio
U8G G9C U10G	1.19
U8G G9C U10C	1.08
U8G G9C U10C U11C C12U C13U	1.04
U8G G9C U10C U11C C12U C13A	1.04
U8G G9C U10C U11C C12U C13G	1.04
U8G G9U U10C C13U	1.03
U8G G9U U10C C13A	1.04
U8G G9U U10C C13G	1.03
U8G G9C U10C U11G C12A	1.07
U8G G9C U10C U11G C12U	1.25
U8G G9C U10C U11G C12G	1.1
U8G G9C U10C U11A C13G	1.05
U8G G9C U10C U11A C13U	1.1
U8G G9C U10C U11A C13A	1.09
U8G G9U U10C U11A C12U C13G	1.11
U8G G9U U10C U11A C12U C13A	1.08
U8G G9U U10C U11A C12U C13U	1.08
U8G G9C U11G C12G C13G	1.07
U8G G9C U11G C12G C13A	1.09
U8G G9C U11G C12G C13U	1.11
U8G G9U U10A U11A C13U	1.25
U8G G9U U10A U11A C13G	1.09
U8G G9U U10A U11A C13A	1.19
U8G G9C U10A U11C C12A C13A	1.06

Variant	aptazyme ON/OFF ratio
U8G G9C U10A U11C C12A C13U	1.07
U8G G9C U10A U11C C12A C13G	1.07
U8G G9U U10A U11A C12U C13A	1.14
U8G G9U U10A U11A C12U C13U	1.15
U8G G9U U10A U11A C12U C13G	1.11
U8G G9C U10G U11G C12U	1.23
U8G G9C U10G U11G C12A	1.21
U8G G9C U10G U11G C12G	1.31
U8G G9U U10A C12G C13G	1.12
U8G G9U U10A C12G C13U	1.23
U8G G9U U10A C12G C13A	1.2
U8G G9C U11A C12A C13U	1.06
U8G G9C U11A C12A C13A	1.07
U8G G9C U11A C12A C13G	1.05
U8G G9U U10C U11C C12A C13U	1.02
U8G G9U U10C U11C C12A C13A	1.05
U8G G9U U10C U11C C12A C13G	1.1
U8G G9C U10G U11G C12U C13A	1.16
U8G G9C U10G U11G C12U C13U	1.28
U8G G9C U10G U11G C12U C13G	1.14
U8G G9C U10C C12G C13G	1.06
U8G G9C U10C C12G C13U	1.08
U8G G9C U10C C12G C13A	1.16
U8G G9C U10G U11A C12G C13G	1.29

Variant	aptazyme ON/OFF ratio
U8G G9C U10G U11A C12G C13A	1.14
U8G G9C U10G U11A C12G C13U	1.2
U8G G9C U10G U11A C12U C13U	1.12
U8G G9C U10G U11A C12U C13A	1.16
U8G G9C U10G U11A C12U C13G	1.15
U8G G9C U11C C13U	1.03
U8G G9C U11C C13G	1.04
U8G G9C U11C C13A	1.06
U8G G9C U10G U11C C12G C13A	1.08
U8G G9C U10G U11C C12G C13G	1.05
U8G G9C U10G U11C C12G C13U	1.08
U8G G9U C12A C13U	1.07
U8G G9U C12A C13G	1.22
U8G G9U C12A C13A	1.41
U8G G9U U10A U11C C12A	1.12
U8G G9U U10A U11C C12G	1.1
U8G G9U U10A U11C C12U	1.05
U8G G9U U10C C12U C13A	1.11
U8G G9U U10C C12U C13G	1.08
U8G G9U U10C C12U C13U	1.2
U8G G9C U10C C12A C13U	1.05
U8G G9C U10C C12A C13A	1.05
U8G G9C U10C C12A C13G	1.06
U8G G9C U10C U11G C12A C13A	1.08

Variant	aptazyme ON/OFF ratio
U8G G9C U10C U11G C12A C13G	1.05
U8G G9C U10C U11G C12A C13U	1.04
U8G G9C U10C U11A C12U	1.06
U8G G9C U10C U11A C12A	1.05
U8G G9C U10C U11A C12G	1.06
U8G G9U U10A C12A	1.43
U8G G9U U10A C12G	1.15
U8G G9U U10A C12U	1.11
U8G G9C U10G U11A C13U	1.06
U8G G9C U10G U11A C13G	1.03
U8G G9C U10G U11A C13A	1.05
U8G G9C U11G C12U C13G	1.13
U8G G9C U11G C12U C13U	1.25
U8G G9C U11G C12U C13A	1.1
U8G G9U U10A U11C	1.01
U8G G9U U10A U11G	1.16
U8G G9U U10A U11A	1.59
U8G G9C U10C C12U C13U	1.04
U8G G9C U10C C12U C13A	1.06
U8G G9C U10C C12U C13G	1.05
U8G G9U U10A U11G C12A C13G	1.06
U8G G9U U10A U11G C12A C13U	1.12
U8G G9U U10A U11G C12A C13A	1.05
U8G G9U U10C C12U	1.09

Variant	aptazyme ON/OFF ratio
U8G G9U U10C C12A	1.19
U8G G9U U10C C12G	1.41
U8G G9C U10C U11G C13A	1.17
U8G G9C U10C U11G C13U	1.16
U8G G9C U10C U11G C13G	1.1
U8G G9C U10A U11G C12A C13U	1.16
U8G G9C U10A U11G C12A C13A	1.07
U8G G9C U10A U11G C12A C13G	1.14
U8G G9U C12A	1.57
U8G G9U C12G	1.64
U8G G9U C12U	1.77
U8G G9U	3.25
U8G G9C U11A C12G C13G	1.1
U8G G9C U11A C12G C13A	1.08
U8G G9C U11A C12G C13U	1.07
U8G G9C U10G U11G C13U	1.12
U8G G9C U10G U11G C13G	1.12
U8G G9C U10G U11G C13A	1.16
U8G G9U C12G C13U	1.31
U8G G9U C12G C13A	1.3
U8G G9U C12G C13G	1.27
U8G G9U U10A U11G C12G	1.27
U8G G9U U10A U11G C12U	1.24
U8G G9U U10A U11G C12A	1.12

Variant	aptazyme ON/OFF ratio
U8G G9C U11G C12A C13G	1.05
U8G G9C U11G C12A C13U	1.08
U8G G9C U11G C12A C13A	1.08
U8G G9C U10G C12G C13U	1.17
U8G G9C U10G C12G C13G	1.08
U8G G9C U10G C12G C13A	1.08
U8G G9C U10C U11A C12U C13A	1.04
U8G G9C U10C U11A C12U C13U	1.04
U8G G9C U10C U11A C12U C13G	1.02
U8G G9U U10A U11G C13U	1.04
U8G G9U U10A U11G C13A	1.09
U8G G9U U10A U11G C13G	1.03
U8G G9U U10A C13G	1.06
U8G G9U U10A C13U	1.09
U8G G9U U10A C13A	1.1
U8G G9U U10C U11A	1.27
U8G G9U U10C U11C	1.05
U8G G9U U10C C12G C13A	1.26
U8G G9U U10C C12G C13G	1.25
U8G G9U U10C C12G C13U	1.36
U8G G9U U10C U11C C12G C13U	1.09
U8G G9U U10C U11C C12G C13A	1.07
U8G G9U U10C U11C C12G C13G	1.1
U8G G9C U11A C12A	1.11

Variant	aptazyme ON/OFF ratio
U8G G9C U11A C12G	1.07
U8G G9C U11A C12U	1.05
U8G G9C U11C C12U C13A	1.03
U8G G9C U11C C12U C13G	1.03
U8G G9C U11C C12U C13U	1.04
U8G G9U U10A U11G C12G C13U	1.37
U8G G9U U10A U11G C12G C13A	1.05
U8G G9U U10A U11G C12G C13G	1.15
U8G G9C U10A U11C C12G C13A	1.05
U8G G9C U10A U11C C12G C13G	1.05
U8G G9C U10A U11C C12G C13U	1.14
U8G G9U U10A U11C C12U C13A	1.08
U8G G9U U10A U11C C12U C13U	1.05
U8G G9U U10A U11C C12U C13G	1.05
U8G G9C U10G U11C C13G	1.02
U8G G9C U10G U11C C13A	1.05
U8G G9C U10G U11C C13U	1.04
U8G G9U C12U C13U	1.14
U8G G9U C12U C13G	1.28
U8G G9U C12U C13A	1.22
U8G G9C U10G U11C C12U C13G	1.02
U8G G9C U10G U11C C12U C13U	1.03
U8G G9C U10G U11C C12U C13A	1.03
